Measurements as given in US20160264647A1 (US Dept. of Health and Human Services, published 2016).

B1: IgG1 m338 (antibody, V domains shown)
VH: QVQLQQSGAEVKKRGSSVKVSCKASGGTFSSYTISWVRQAPGQGLEWMGRIIPILGIANYAQKFQGRVTITADKSTSTAYMELSSLRSEDTAVYYCARDLYDSSGYYRNTDAFDIWGQGTMVTVSS
VL: EIVMTQSPVTLSLSPGERATLSCRASQSVSSYLAWYQQKPGQAPRLLIYDASNRATGIPARFSGSGSGTDFTLTISSLEPEDFAVYYCQQYGSSPWTFGQGTKVEIKR
B2: IgG1 m336 (antibody, V domains shown)
VH: QVQLVQSGAEVKKPGSSVKVSCKASGGTFSSYAISWVRQAPGQGLEWMGGIIPIFGTASYAQKFQGRVTITADKSTSTAYMELSSLRSEDTAVYYCARVGYCSSTSCNRGAFDIWGQGTMVTVSS
VL: DIQLTQSPSSLSASVGDRVTITCRASQGIRNDLGWYQQKPGKAPKLLIYAASSLQSGVPSRFSGSGSGTDFTLTISSLQPEDFATYYCQQLNSYPLTFGGGTKVEIKR
B3: IgG1 m337 (antibody, V domains shown)
VH: QVQLQQSGAEVKKPGSSVKVSCKASGGTFSSYTISWVRQAPGQGLEWMGRIIPIFGTANYAQKFQGRVTITADKSTSTAYMELSSLRSEDTAVYYCARDLGPGGDSSGYYYGPGAFDIWGQGTMVTVSS
VL: not shown

Each binder was assayed against T1, MERS-CoV spike glycoprotein (S) (MERS-CoV, UniProt K9N5Q8 18-1353) (assay: cell-based or functional assay).
T1 sequence: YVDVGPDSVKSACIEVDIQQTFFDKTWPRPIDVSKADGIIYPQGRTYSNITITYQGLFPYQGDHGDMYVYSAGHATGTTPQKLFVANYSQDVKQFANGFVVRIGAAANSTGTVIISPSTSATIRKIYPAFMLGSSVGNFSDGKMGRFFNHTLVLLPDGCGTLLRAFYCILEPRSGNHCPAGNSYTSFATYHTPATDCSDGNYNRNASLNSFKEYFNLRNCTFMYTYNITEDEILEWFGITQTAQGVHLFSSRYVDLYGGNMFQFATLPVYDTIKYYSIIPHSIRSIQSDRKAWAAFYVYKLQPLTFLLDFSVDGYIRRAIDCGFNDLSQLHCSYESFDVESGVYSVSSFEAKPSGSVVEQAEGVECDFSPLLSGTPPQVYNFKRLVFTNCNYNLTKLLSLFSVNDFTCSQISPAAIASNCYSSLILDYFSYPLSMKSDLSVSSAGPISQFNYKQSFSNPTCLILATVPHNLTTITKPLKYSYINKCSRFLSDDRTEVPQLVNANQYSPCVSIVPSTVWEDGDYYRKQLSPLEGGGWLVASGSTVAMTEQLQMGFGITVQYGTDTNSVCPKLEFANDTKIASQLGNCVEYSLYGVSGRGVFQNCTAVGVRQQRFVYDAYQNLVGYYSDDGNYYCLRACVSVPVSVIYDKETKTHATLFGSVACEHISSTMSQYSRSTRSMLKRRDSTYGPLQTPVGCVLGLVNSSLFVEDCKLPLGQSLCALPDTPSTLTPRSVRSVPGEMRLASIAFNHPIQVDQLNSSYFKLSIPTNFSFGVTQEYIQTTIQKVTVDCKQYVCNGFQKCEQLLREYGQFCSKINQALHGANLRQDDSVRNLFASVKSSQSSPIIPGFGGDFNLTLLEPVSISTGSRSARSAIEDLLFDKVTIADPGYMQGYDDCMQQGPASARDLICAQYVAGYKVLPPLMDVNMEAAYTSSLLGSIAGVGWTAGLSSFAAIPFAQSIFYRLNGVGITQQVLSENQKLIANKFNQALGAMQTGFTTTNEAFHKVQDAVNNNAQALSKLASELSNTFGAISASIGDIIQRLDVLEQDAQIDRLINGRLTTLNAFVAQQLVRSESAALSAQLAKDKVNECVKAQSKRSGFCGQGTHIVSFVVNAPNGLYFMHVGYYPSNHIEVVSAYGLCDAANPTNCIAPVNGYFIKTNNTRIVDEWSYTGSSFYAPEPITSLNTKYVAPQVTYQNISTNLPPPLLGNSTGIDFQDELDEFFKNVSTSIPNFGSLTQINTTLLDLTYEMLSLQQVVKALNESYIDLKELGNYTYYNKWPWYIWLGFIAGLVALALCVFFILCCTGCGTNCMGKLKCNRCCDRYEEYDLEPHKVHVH

| Binder | MERS-CoV pseudovirus neutralization (inhibition of viral entry) at 0.1 µg/ml [%] |
| --- | --- |
| B1 | > 95 |
| B2 | > 95 |
| B3 | > 95 |
